Assay results reported in a protein production outcome set (Wang et al. 2014).

Test: label from the status in PepcDB records
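Also: failed if final PepcDB status was selected cloned or expressed and not failed if soluble or beyond.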

Sequence | protein production
MSAATPPFRDPQLPFAKRVDDLMSRLTLDEKTAFLHQFAPAVERLGIAPFRTGQEALHGVAWMGPATVFPQAVGLGATWNEELVRRVGEAVSKEARAMRARDDRVGLNVWSPTVNLLRHPLWGRNEEGYSEDPRLTSAVATAYTRGLRGDHPAYWRTAPVLKHWLAHNNETDRDTSSSSVRPRVLHEYDLRAFRDTVEAGAVAGVMPAYNLVNGRPNHLSPHLGRHLRTWTQEDLLVCSDAGAPSNLVDSEHYFDTHEEATAAALRAGVDSFTDHGTDSSKIVARVRGALEAGLLTEADVDAAVRRQLSVRFRLGEFDPENDPYSGAADTGADFDTPEHRALARDAAEQAVVLLKNDGVLPLAPETRVAVVGLLADECKLDWYSGTLIHRSTPLEGLYERFGADRVSFAEGVDRVRLRTADGRFLHVLPADDASAEAPGTEGALDPALLAGRTDLPPLTTDAVGTELALIDWGEGVLTLRASDGRYLSVAEDGFVRASADQPGGWVVQETFRLEPHDDGHLLRHTGTGRPVQVAADGVKVAAPDAAAGAAAGGAGSADAEVFELVVVERGEDAVTRVAAGADVVVVVAGNDPHINGRETEDRTTLRLPAQQERLLRAARAANPATVLALVSAYPYAVGVETLPAVLWTAHGGQAAGTALARILAGDVSPAGRLPQTWYSDDADLPGLLDYDVIGGRQTYLYFEGTPLFPFGHGLSYASFGYGDLTAQVRDGAVAVSFTVTNTGEVSADEVAQLYVRAEAPSVPRPRRELLAHRRLTLAPGASDRVSFEVPLSALAFWDVAHDRWRLEPGPYALLVGASSEDVRLTTTVTIDGEPAVPRPVGARGVQAVDFDEQSGTEIVDRTKAAGDAVAAVSGRTGELLYRDCDFGAGAAGVTVSVAGAGSVEVALDGGPAVAVLSPDAPTAGPYDYVELASAFTAEGVHDLRVTLRGALRLAHVGFSG | failed
MPRITQEISYNCDYGDNTFNLAIDIGGTLAKVVFSPIHSNRLMFYTIETEKIDKFMELLHSIIKEHNNGCYRMTHIIATGGGAFKFYDLLYENFPQIKGISRFEEMEGLIHGLDFFIHEIPDEVFTYNDQDGERIIPTSSGTMDSKAIYPYLLVNIGSGVSILKVTEPNNFSRVGGSSLGGGTLWGLLSLITGAQTYDQMLDWAQEGDNSSVDMLVGDIYGTDYNKIGLKSSAIASSFGKVFQNRMTSNKSLENNENKLYSSHESIEKNNGQMFKNPDICKSLLFAISNNIGQIAYLQAKINNIQNIYFGGSYTRGHLTTMNTLSYAINFWSQGSKQAFFLKHEGYLGAMGAFLSASRHSSTKKTST | failed
MSPFESMEKFPHLLVLDFDGVLCDGLQEYFQTSCQVCRQIWPDLPREKLDRQRDNFYFLRPVIETGWEMPLLLKALATGVEPAAIEAAWPAVAQTLQRQEQIGKSQLAPVLDQVRDNYIHNDLAYWLGLHHFYPGVIGQLNHWLQSPYPQWLYVVTTKEGRFVQQLLKNQKVDFPLGQIIGKEIKQPKFKTLEQLRVKHQCDGDRLWFVEDMLT | failed
MSLANKPLAKALETISGIPITPFRKSDGSIDWHHYKETVDRIVDNGIDVIVPCGNTSEFYALSLEEAKEEVRRTVEYVHGRALVVAGIGYATSTAIELGNAAKAAGADAVMIHMPIHPYVTAGGVYAYFRDIIEALDFPSLVYFKDPEISDRVLVDLAPLQNLVGVKYAINDLPRFAKVVRSIPEEHQIAWICGTAEKWAPFFWHAGAKGFTSGLVNLLPQKAVEMLEALRNNDNDAVWRIWEDIVPFEDLRGKYNQGNNVVVIKEAMEMLRQNAGVTRAPVNELSNEDKQLVTELLSSWKLLQPTKGEGHHHHHH | not failed
MTGTSNIPTHGKEHKDAPALLPLPAPNPHHTHAAHPGNPSHDRPPSRGKLFIKTHGCQMNEYDSAKMADVLTTTEALELTDNPEEADIILINTCSIREKAQEKVFSQLGRWRALKTSGRDVIIGVGGCVASQEGEAIVKRAPYVDLVFGPQTLHRLPDMIRARREQNRPQVDIRFPEIEKFDHLPTPRAEGPSAFVSIMEGCSKYCSFCVVPYTRGEEVSRPFEDVLTEIAHLATQGVREINLLGQNVNAYRGAMDPGPSNNTNPAPPPYADLGLLIRAIAQFESIGRIRFTTSHPLEFSDSLVEAYRDVPQLANHLHLPVQSGSDRILSAMKRGYTALEFKSKIRKLRAVRPDISISSDFIIGFPGESDTDFQKTMQLIEDIGFDQSFSFIYSRRPGTPASNLEDHTPDEIKRTRLEHLQKHINTYAADISKRMIGTVQTVLVEGPSKKNPNELTGKTENMRPVNFPGHPRLIGQFIDVHITEALSNSLRGRVHTNLEHHHHHH | not failed
MEFLIILLLLVLNGIFAMYEIALVSSSKARLETLAGKGNKSARGVLKQLEEPEKFLSTIQIGITLIGIVSGAYGGVAIADDLVPLFSLIPGAEAYARNLAMITTVVIITYLSLIIGELVPKSIALSNPERYATLFSPIMILLTKVSYPFVWFLSISTRLLNRIIGVKNEERPMTQEEIKMILHQSSEQGVIDKEETEMLRDVFRFSDKRANELMTHRRDLVIFHPDDTKDKVMKTIEEEHYSKYLLVDERKDEIIGVVSVKDIILMVGNKKEFNLREIARPALFIPESLYANKILELFKKNKNKFGVVVNEYGSTEGIITLHDLTESIFGDILEEDDTEEEDIVRRQDGSMLVEASMNIKDFMEEMGILSYEDLEDEDFTTLGGLAMFLLGGIPKAGDIFTYKNLQFEVVDMDRGRVDKLLVIKRDEEE | failed
MDRGGMKHREGGPGPRTEMSGYSVYEEENERLTENLKMKTSALKSLSIDIGNEVKYHNKMLGEMDSDFDSTGGLLGSTMGRLKILSRGSQAKLLCYMMLFAFFVFFVIYWFIKLR | failed
MLVRLKETDQRTMISRIKALAPPVQKAGAALLIDGHAELVARGGADGAHLPGIAALKEALPSLKPDRIAGVGGLTTRHHSMDAGEIGADYLLFGEPDAKGQRPSSEAIAERLDWWAELFEPPCVGFATSLEEAYDFAASGADFVLVGEFVWADPRGAKAALIEADATIKKAHAAALASQNPAGEHG | failed
ALPPEPKEENAEPVSKLRIRTPSGEFLERRFLASNKLQIVFDFVASKGFPWDEYKLLSTFPRRDVTQLDPNKSLLEVKLFPQETLFLEAKE | failed
MIFERIKSEGLAHLSYFVGSGNEAIVIDPRRDCQIYFDIARREGMKIKYIFETHRNEDYVIGSLELKELTDAEIYHGKGVDFKYGIFVSDGQEFNFGSMKLTALHTPGHTDESMSYALTYPESGKAPLMVFTGDALFVGDVGRTDLYGPEEIPRMAANLYESIFNKILPLGDGVILCPAHGAGSLCGGAISKREYSTLGLERIQNPALQRTDKEEFIKFKLEEKLEFPPYFKKMEQYNLQGPPLLKGLPVPELLFPKEFVKEMEKGAMVVDTRMPHSFGGAHIKGSYGIWLKGLPYYAGWVLPYDKPILLVLEEKDQLETAVSYLVRIGYDSIAGFLNGGISSWYMKALPVESLNLISVQSLKDKIEKNEEMVILDVRRDEEWEKGHIEGARHVYVGHLEENLDKVPRNSPIIVYCDSSRRSNIAASILKKKGYDMVYNVLGSMTAWKNAGYKVVKLEHHHHHH | not failed
ISLAVLAVSIIFLGVTVIQNKKKIDPALKELSSVTQAMQKQIEGLKTETELLTQKQKKIQQDVQIKKYTLQQTAAEVKEVPQAVKEVWQA | not failed
MMIIIRVAIMISVVFYLYFIINLLLINHYREPIQSYEKGPTPYELFLVIPVLNEEHVISRTITQLTESLEQLPPTVHAQIIAVDDDSTDHSLLLLTQSSSRFLQILHRTGNQRAGKGAVLNTAVQYIHKTLALKSDPQRTIVGVLDADAFMNTADLTRVLAHFEQEPQLAMIQTSVNIYNQPNWLTKMQNFEFMGVNNATQQLRNRLGQGIASGNGQFVRLDLALQNPWGNSLLEDLEFTLRTWLLGGTRTAFDHTLVVQQEAVEQLRPFFRQRVRWCQGAVQCMRYLPALWRSGRLNHFQKLDTTFWILMPISGCIVPLTSLITLVVLVSRSLQHWQVGWHHLAIGTLLVIAFSACLVLAALYQRNCAVVKQPVGFLDALKQSLTFQAFLLIISLTPYVAIYRQLRGQTGWAKTHHGVTTRVAKYPDTGLKRSY | failed
MIGDLDISGVFLPTLLVLMGITYGLYLLVHGVLTRLHFYRLVWHRALFNVGLYALLLGAVDSLSRYLMT | failed
GGVMHYTDKAALPADGEAREVAALFDTWNAALATGNPHKVADLYAPDGVLLPTVSNEVRASREQIENYFEMFLTKKPKGVINYRTVRLLDDDSAVDAGVYTFTLTDKNGKKSDVQARYTFVYEKRDGKWLIINHHSSAMPEVDTATATAAVTKAK | not failed
